These results are taken from US20170260241A1 (KEMYTH BIOTECH, published 2017).

Assay [1] concerns the target T1, recombinant TLR4 protein.
T1 construct: also called Toll-like receptor 4
Description: competition ELISA: peptide titrated from 50 µM to 3.05 nM against MD2 (50 nM) on plate-coated TLR4; competitor MD2.

Assay [2] has as its target T1, recombinant TLR4 protein. The assay is described as follows: competition ELISA: TLR4 coated (2 µg/mL), MD2 (50 nM) mixed with titrated peptide, residual bound MD2 detected with anti-MD2 and anti-mouse IgG-HRP, OD450; competed ligand: MD2. (In an ELISA, binding on a coated surface is turned into a signal by an enzyme label.)

As usually defined, the Ki is the dissociation constant of the complex between target and ligand, obtained from inhibition or displacement. For QDLTAHFTTSIPLKGNVRNLSVKIRECTGLAWEWW [N35PLY4 (N-terminal 35 amino acid fragment of C70PLY4, 402-436 amino acid residues)], the inhibition constant (Ki) with recombinant TLR4 protein [1] turned out to be 11200 nM.

B1: C70PLY4 (C-terminal 70 amino acid fragment of pneumolysin, 402-471 amino acid residues) (peptide)
peptide: QDLTAHFTTSIPLKGNVRNLSVKIRECTGLAWEWWRTVYEKTDLPLVRKRTISIWGTTLYPQVEDKVEND
With B1, the Ki in the assay with recombinant TLR4 protein [1] was 74.8 nM. The “IC50 (read off the curve)” value with recombinant TLR4 protein [2] is roughly 300 nM.
